US20260139278A1, “SPECIFICITY OF CRISPR-TRANSPOSON SYSTEMS IN DNA MODIFICATION” (The Trustees of Columbia University in the City of New York, published 2026)

Columns and labels:
[1] = target: T1, TnsC (Scytonema hofmannii UTEX B 2349, Type V-K CAST, recombinantly purified, after TEV cleavage)
T1 chain: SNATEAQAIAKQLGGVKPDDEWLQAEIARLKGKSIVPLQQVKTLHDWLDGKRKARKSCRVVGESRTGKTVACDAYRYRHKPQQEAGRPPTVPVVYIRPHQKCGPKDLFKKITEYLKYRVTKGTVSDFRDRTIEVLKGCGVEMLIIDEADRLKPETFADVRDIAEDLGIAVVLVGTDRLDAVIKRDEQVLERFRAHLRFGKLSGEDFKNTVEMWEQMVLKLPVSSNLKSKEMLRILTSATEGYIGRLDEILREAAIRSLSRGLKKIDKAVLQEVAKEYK

[2] = target: T2, TnsC (Scytonema hofmannii UTEX B 2349, Type V-K CAST, recombinantly purified, after TEV cleavage) (Scytonema hofmannii (UTEX B 2349)); assay: fluorescence polarization, TniQ (0-1 µM) titrated onto 55-bp FAM-labeled dsDNA preincubated with TnsC
T2 construct: also called AAA+ ATPase; AAA+ regulator
T2 chain: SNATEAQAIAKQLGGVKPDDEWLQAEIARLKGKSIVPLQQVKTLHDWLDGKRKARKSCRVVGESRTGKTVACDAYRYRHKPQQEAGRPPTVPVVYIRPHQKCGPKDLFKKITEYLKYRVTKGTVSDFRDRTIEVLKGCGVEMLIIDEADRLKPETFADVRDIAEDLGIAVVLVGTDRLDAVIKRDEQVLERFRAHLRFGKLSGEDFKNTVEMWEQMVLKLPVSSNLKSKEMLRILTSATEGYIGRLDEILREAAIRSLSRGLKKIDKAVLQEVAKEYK
Procedure: (§1) Fluorescence polarization. Fluorescence polarization was performed as reported earlier (Hoffmann, F. T. et al. Nature 609, 384-393 (2022). A 55 bp dsDNA labeled with a 5′ Fluorescein (6-FAM) tag on one of its strands was used for all fluorescence polarization experiments (Table 3). Recombinantly expressed TnsC (0-15 μM) was titrated with the FAM-labeled dsDNA in 1× binding buffer (20 mM HEPES pH 7.5, 2 mM MgCl₂, 200 mM NaCl, 10 μM ZnCl₂, 1 mM DTT) in the presence of 2 mM ATP or its analogs. The samples were incubated at 37° C. for 30 min in a 384-well plate. The fluorescence gain was adjusted to a sample lacking TnsC while keeping a requested polarization value of 60 mP. The error bar represents the standard deviation measured across two technical replicates. For low salt measurements, the concentration of NaCl was maintained at 50 mM.
(§2) For fluorescence polarization measurements for TniQ alone or its interaction with DNA bound to TnsC, TniQ (0-1 μM) was titrated and incubated for 30 min at 37° C. with fluorescently labeled DNA alone or DNA preincubated with […] (30 min at 37° C.). Experiments were conducted in a 1× binding buffer containing 50 mM NaCl in a 25 μL final volume.

TniQ + TnsC (ShCAST) = target: T3, TniQ + TnsC (ShCAST) (Scytonema hofmannii UTEX B 2349); assay: FP; TniQ titrated onto DNA preincubated with TnsC, 50 mM NaCl, 37C; details: tags: His6-SUMO-TEV cleaved
T3 chain 1: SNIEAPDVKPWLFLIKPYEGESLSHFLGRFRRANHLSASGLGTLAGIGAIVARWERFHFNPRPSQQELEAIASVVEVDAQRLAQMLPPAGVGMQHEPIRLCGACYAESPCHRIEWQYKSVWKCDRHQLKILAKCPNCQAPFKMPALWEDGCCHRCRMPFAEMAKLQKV
T3 chain 2: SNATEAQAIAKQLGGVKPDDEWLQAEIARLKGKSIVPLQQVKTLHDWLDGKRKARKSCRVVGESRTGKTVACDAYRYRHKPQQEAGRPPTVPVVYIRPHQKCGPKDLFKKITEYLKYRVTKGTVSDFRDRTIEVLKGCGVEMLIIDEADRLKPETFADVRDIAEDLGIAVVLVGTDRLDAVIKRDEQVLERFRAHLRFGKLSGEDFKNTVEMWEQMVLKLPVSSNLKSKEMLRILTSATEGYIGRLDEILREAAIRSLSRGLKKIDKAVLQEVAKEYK
Procedure: as §1, §2

TnsC (ShCAST) = target: T4, TnsC (ShCAST) (Scytonema hofmannii UTEX B 2349); assay: FP; ATP-dependent at 200 mM NaCl; nucleotide-independent at 50 mM NaCl; 2 mM MgCl2, 37C; details: tags: His6-SUMO-TEV cleaved (SNA N-terminal scar)
T4 chain: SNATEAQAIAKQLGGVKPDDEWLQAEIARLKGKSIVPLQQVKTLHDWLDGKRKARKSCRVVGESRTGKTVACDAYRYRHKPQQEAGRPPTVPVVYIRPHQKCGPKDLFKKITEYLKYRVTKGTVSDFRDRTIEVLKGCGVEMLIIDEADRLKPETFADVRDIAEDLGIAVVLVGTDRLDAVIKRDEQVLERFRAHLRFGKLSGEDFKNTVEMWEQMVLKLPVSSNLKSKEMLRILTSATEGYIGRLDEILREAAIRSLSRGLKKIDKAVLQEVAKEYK
Procedure: as §1

B1: TnsB (Scytonema hofmannii UTEX B 2349, Type V-K CAST, recombinantly purified, after TEV cleavage) (protein)
chain: SNNSQQNPDLAVHPLAIPMEGLLGESATTLEKNVIATQLSEEAQVKLEVIQSLLEPCDRTTYGQKLREAAEKLNVSLRTVQRLVKNWEQDGLVGLTQTSRADKGKHRIGEFWENFITKTYKEGNKGSKRMTPKQVALRVEAKARELKDSKPPNYKTVLRVLAPILEKQQKAKSIRSPGWRGTTLSVKTREGKDLSVDYSNHVWQCDHTRVDVLLVDQHGEILSRPWLTTVIDTYSRCIMGINLGFDAPSSGVVALALRHAILPKRYGSEYKLHCEWGTYGKPEHFYTDGGKDFRSNHLSQIGAQLGFVCHLRDRPSEGGVVERPFKTLNDQLFSTLPGYTGSNVQERPEDAEKDARLTLRELEQLLVRYIVDRYNQSIDARMGDQTRFERWEAGLPTVPVPIPERDLDICLMKQSRRTVQRGGCLQFQNLMYRGEYLAGYAGETVNLRFDPRDITTILVYRQENNQEVFLTRAHAQGLETEQLALDEAEAASRRLRTAGKTISNQSLLQEVVDRDALVATKKSRKERQKLEQTVLRSAAVDESNRESLPSQIVEPDEVESTETVHSQYEDIEVWDYEQLREEYGF
**Q.** Which results are given for B1?
**A.** ATP hydrolysis activity of TnsC (Malachite Green assay) [1]: TnsB stimulates the ATP hydrolysis activity of TnsC in a DNA-dependent reaction; phosphate liberated (Malachite Green Phosphate Assay; TnsC 10 µM, TnsB 20 µM, dsDNA 10 µM, 1 mM ATP, 120 min at 37° C.) [1]: the sample containing TnsC, TnsB and dsDNA which liberated 174 µM of phosphate

B2: TniQ (Scytonema hofmannii UTEX B 2349, Type V-K CAST, recombinantly purified, after TEV cleavage) (other)
chain: SNIEAPDVKPWLFLIKPYEGESLSHFLGRFRRANHLSASGLGTLAGIGAIVARWERFHFNPRPSQQELEAIASVVEVDAQRLAQMLPPAGVGMQHEPIRLCGACYAESPCHRIEWQYKSVWKCDRHQLKILAKCPNCQAPFKMPALWEDGCCHRCRMPFAEMAKLQKV
notes: also called ShCAST TniQ; adaptor protein
**Q.** Does B2 bind [2]?
**A.** binds

B3: 55-bp FAM dsDNA (dsDNA)
DNA 1: GAGGAGGGCTGTTTTTACAAAATCCGGTAGTAACTTGCTAACCAATTCCTAGGCA
DNA 2: TGCCTAGGAATTGGTTAGCAAGTTACTACCGGATTTTGTAAAAACAGCCCTCCTC
**Q.** Does B3 bind (TniQ + TnsC (ShCAST))?
**A.** binds

**Q.** Does B3 bind (TnsC (ShCAST))?
**A.** binds
